Tested on: MS2 coat protein
Assay: apparent KD of MS2 coat protein; higher = weaker reporter binding
Settings: Eterna round: R107
Summary of the method: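 Illumina sequencing clusters served as templates for on-chip transcription of the designed RNA switches. SNAP-549-labelled MS2 coat protein was then titrated in twofold steps from 0.7 or 1.5 nM to 3 µM, allowing 0.8–1.5 h per step at first and 10–20 min per step later. The buffer held 100 mM Tris-HCl pH 7.5, 80 mM KCl and 4 mM MgCl2, without or with constant ligand. Apparent KD is the median per design of normalised cluster binding-curve fits.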

[1] = input ligand: theophylline 20 uM
[2] = input ligand: theophylline 2 mM
[3] = input ligand: tryptophan 2.4 mM

Row | Sequence | apparent KD of MS2 coat protein (input ligand: arginine 13.2 mM) [nM] | apparent KD of MS2 coat protein [1] [nM] | apparent KD of MS2 coat protein [2] [nM] | apparent KD of MS2 coat protein (input ligand: none) [nM] | apparent KD of MS2 coat protein [3] [nM]
1 | AACAUGAGGAUCACCCAUGUGUCCUCGAAACGAGGACCGGUACGGCCGCCACUCGAAAUAAGCUGUUGACGAAAAGUCAGCAGCA [Mat - Exclusion - Trytophan A - D20] | 128 | 300 | 345 | – | –
2 | UGUAUGGACUGAAGGAGCGCAUCAAAAUAACAUGAGGAUCACCCAUGUAAGGCGAAAGCCGUGCAGGUAGGUCGCAGUCCAUACU [ArgBX 3] | 14.9 | 17.3 | 18.8 | 15.6 | 15.3
3 | AUCGUACCUGAGGAUACCAGCAUGUGAUCAUAACAUGAGGAUCACCCAUGUAAUCAGUGAUGCCCUUGGCAGCUUGGUCGGUACA [Same State - Theophylline B (Freestyle 10)] | 34.8 | 74.3 | – | – | 44.2
4 | AGAUUACAUGUUUUAAUAAGAUAAACUGAUACCAGUGUAUAUAUUCACCCUUGGCAGCAGCAACAUGAGGAUCACCCAUGUAUUA [JR_SSTheophyA_Sub015] | 14.4 | 18.7 | – | – | 16.7
5 | AUGGUUGUCGCGGCCGCCACUGUCGGCCGCCACUAAACAUGAGGAUCACCCAUGUAGGACCGGGACAGGACCGGGUGAUAACCAC [TryBS - #DoubleAptamer 3] | 24.1 | 33.9 | 33.2 | 25.9 | 14.3
6 | AUAAAUAAGGCGGCCGCCACUAAUAUAUUAAUAUUUUAUAUCCGACAUGAGGAUCACCCAUGUGGUAGGACCGGGCCAAUAAUUA [Same State - Tryptophan B] | 20.4 | 43.4 | 25 | – | –
7 | UGACAUUGCUCAGAUACCAGACAUGAGCAUCAGCCAUGUGCCAACAAGUACAUAAUAAAUGUCCCUUGGCAGCUGAGCAAUGUCU [TheoBX 16 #MS2Left #Theo2 #AlternativeMS2] | 14.3 | 20.5 | 149 | 13 | 12.7
8 | ACGGAUCGGAAACGAUCCGCGGCUAGGGUGCGAGGACCGGUACGGCCGCCACUCGGGUAACAUGAGGAUCACCCAUGUCUGAUUU [ETA NP+V+V2 #14] | 50.6 | 116 | 118 | 123 | 587
9 | GCAUCCUAGUCGGCCGCCACUGCACGAUCAGUGGCAGAUCGUCAACAUGAGGAUCACCCAUGUAGCAGGACCGGGACUAGGAUGC [(Trp1)-(TM)''-(TM)'-(Ms2)-(Trp2)_Design3] | 18.5 | 21.9 | 20.9 | – | –
10 | UCGGGCAGAGCGGCCGCCACUGUUUGGCAUGCGGAUGAAGGAACAUGAGGAUCACCCAUGUAGAUUAGGACCGGGCUGGCGGAGA [jjhemullin] | 17.3 | 19.2 | 39.4 | 20.1 | 36.5

From the supplement of paper PMC9170038
